Reference: patent US20260167699A1 (Chugai, published 2026)
Changes are numbered by the printed parent chain.

T1: FcγRIIa(R) extracellular domain, His-tagged (human, UniProt P12318 34-217)
T1 construct: extracellular domain; also called 2aR
T1 sequence: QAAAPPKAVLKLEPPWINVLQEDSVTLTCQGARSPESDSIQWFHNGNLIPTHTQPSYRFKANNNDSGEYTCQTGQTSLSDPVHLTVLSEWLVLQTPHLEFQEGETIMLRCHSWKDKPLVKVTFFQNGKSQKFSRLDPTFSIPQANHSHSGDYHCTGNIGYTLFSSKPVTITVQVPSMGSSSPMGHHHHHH

T2: FcγRIIa(H) extracellular domain, His-tagged (human, UniProt P12318 34-217)
T2 construct: extracellular domain; also called 2aH
T2 sequence: T1 sequence with R134H

T3: FcγRIIb extracellular domain, His-tagged (human, UniProt P31994 43-217)
T3 construct: extracellular domain; also called 2b
T3 sequence: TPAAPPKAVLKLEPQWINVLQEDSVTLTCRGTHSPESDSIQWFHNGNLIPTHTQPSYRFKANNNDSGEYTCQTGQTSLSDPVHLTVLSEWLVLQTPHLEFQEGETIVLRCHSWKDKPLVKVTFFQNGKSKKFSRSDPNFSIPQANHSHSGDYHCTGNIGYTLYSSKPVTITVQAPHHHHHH

B1: GpH7-A5/GpH7-B3 variant L234_03V/GpL16-k0 (antibody, human IgG1, kappa)
heavy 1: not shown
heavy 2: not shown
light: DIVMTQSPLSLPVTPGEPASISCQASESLVHSNRNTYLHWYLQKPGQSPQLLIYKVSNRFSGVPDRFSGSGSGTDFTLKISRVEAEDVGVYYCSQNTHVPPTFGQGTKVEIERTVAAPSVFIFPPSDEQLKSGTASVVCLLNNFYPREAKVQWKVDNALQSGNSQESVTEQDSKDSTYSLSSTLTLSKADYEKHKVYACEVTHQGLSSPVTKSFNRGEC
B2: GpH7-A5/GpH7-B3 variant L234_05P/GpL16-k0 (antibody, human IgG1, kappa)
heavy 1: not shown
heavy 2: not shown
light: B1 light
B3: GpH7-A5/GpH7-B3 variant L235_03V/GpL16-k0 (antibody, human IgG1, kappa)
heavy 1: not shown
heavy 2: not shown
light: B1 light
B4: GpH7-A5/GpH7-B3 variant L235_15Y/GpL16-k0 (antibody, human IgG1, kappa)
heavy 1: not shown
heavy 2: not shown
light: B1 light
B5: GpH7-A5/GpH7-B3 variant L234_04F/GpL16-k0 (antibody, human IgG1, kappa)
heavy 1: not shown
heavy 2: not shown
light: B1 light
B6: GpH7-A5/GpH7-B3 variant L234_18N/GpL16-k0 (antibody, human IgG1, kappa)
heavy 1: not shown
heavy 2: not shown
light: B1 light
B7: GpH7-A5/GpH7-B3 variant L234_07I/GpL16-k0 (antibody, human IgG1, kappa)
heavy 1: not shown
heavy 2: not shown
light: B1 light
B8: GpH7-A5/GpH7-B3 variant P238_09D/GpL16-k0 (antibody, human IgG1, kappa)
heavy 1: not shown
heavy 2: not shown
light: B1 light
B9: GpH7-A5/GpH7-B3 variant L234_10E/GpL16-k0 (antibody, human IgG1, kappa)
heavy 1: not shown
heavy 2: not shown
light: B1 light
B10: GpH7-A5/GpH7-B3 variant L234_13S/GpL16-k0 (antibody, human IgG1, kappa)
heavy 1: not shown
heavy 2: not shown
light: B1 light
B11: GpH7-A5/GpH7-B3 variant L235_14T/GpL16-k0 (antibody, human IgG1, kappa)
heavy 1: not shown
heavy 2: not shown
light: B1 light
B12: GpH7-A5/GpH7-B3 variant L234_16H/GpL16-k0 (antibody, human IgG1, kappa)
heavy 1: not shown
heavy 2: not shown
light: B1 light
B13: GpH7-A5/GpH7-B3 variant L235_20W/GpL16-k0 (antibody, human IgG1, kappa)
heavy 1: not shown
heavy 2: not shown
light: B1 light
B14: GpH7-A5/GpH7-B3 variant L234_09D/GpL16-k0 (antibody, human IgG1, kappa)
heavy 1: not shown
heavy 2: not shown
light: B1 light
B15: GpH7-A5/GpH7-B3 variant L234_15Y/GpL16-k0 (antibody, human IgG1, kappa)
heavy 1: not shown
heavy 2: not shown
light: B1 light
B16: GpH7-A5/GpH7-B3 variant L235_05P/GpL16-k0 (antibody, human IgG1, kappa)
heavy 1: not shown
heavy 2: not shown
light: B1 light
B17: GpH7-A5/GpH7-B3 variant L234_06M/GpL16-k0 (antibody, human IgG1, kappa)
heavy 1: not shown
heavy 2: not shown
light: B1 light
B18: GpH7-A5/GpH7-B3 variant L235_16H/GpL16-k0 (antibody, human IgG1, kappa)
heavy 1: not shown
heavy 2: not shown
light: B1 light
B19: GpH7-A5/GpH7-B3 variant P238_08L/GpL16-k0 (antibody, human IgG1, kappa)
heavy 1: not shown
heavy 2: not shown
light: B1 light
B20: GpH7-A5/GpH7-B3 variant P238_10E/GpL16-k0 (antibody, human IgG1, kappa)
heavy 1: not shown
heavy 2: not shown
light: B1 light
B21: GpH7-A5/GpH7-B3 variant L234_20W/GpL16-k0 (antibody, human IgG1, kappa)
heavy 1: not shown
heavy 2: not shown
light: B1 light
B22: GpH7-A5/GpH7-B3 variant L235_06M/GpL16-k0 (antibody, human IgG1, kappa)
heavy 1: not shown
heavy 2: not shown
light: B1 light
B23: GpH7-A5/GpH7-B3 variant L235_09D/GpL16-k0 (antibody, human IgG1, kappa)
heavy 1: not shown
heavy 2: not shown
light: B1 light
B24: GpH7-A5/GpH7-B3 variant L234_14T/GpL16-k0 (antibody, human IgG1, kappa)
heavy 1: not shown
heavy 2: not shown
light: B1 light
B25: GpH7-A5/GpH7-B3 variant L235_10E/GpL16-k0 (antibody, human IgG1, kappa)
heavy 1: not shown
heavy 2: not shown
light: B1 light
B26: GpH7-A5/GpH7-B3 variant L235_02A/GpL16-k0 (antibody, human IgG1, kappa)
heavy 1: not shown
heavy 2: not shown
light: B1 light
B27: GpH7-A5/GpH7-B3 variant L235_18N/GpL16-k0 (antibody, human IgG1, kappa)
heavy 1: not shown
heavy 2: not shown
light: B1 light
B28: GpH7-A5/GpH7-B3 variant L235_07I/GpL16-k0 (antibody, human IgG1, kappa)
heavy 1: not shown
heavy 2: not shown
light: B1 light
B29: GpH7-A5/GpH7-B3 variant L235_04F/GpL16-k0 (antibody, human IgG1, kappa)
heavy 1: not shown
heavy 2: not shown
light: B1 light
B30: GpH7-A5/GpH7-B3 variant L234_19Q/GpL16-k0 (antibody, human IgG1, kappa)
heavy 1: not shown
heavy 2: not shown
light: B1 light
B31: GpH7-A5/GpH7-B3 variant L235_13S/GpL16-k0 (antibody, human IgG1, kappa)
heavy 1: not shown
heavy 2: not shown
light: B1 light

Molecular target: T4, FcγRIa extracellular domain, His-tagged (human, UniProt P12314 16-292)
T4 construct: extracellular domain; also called 1a
T4 sequence (P12314 other isoform, or with tags, fused parts or gaps): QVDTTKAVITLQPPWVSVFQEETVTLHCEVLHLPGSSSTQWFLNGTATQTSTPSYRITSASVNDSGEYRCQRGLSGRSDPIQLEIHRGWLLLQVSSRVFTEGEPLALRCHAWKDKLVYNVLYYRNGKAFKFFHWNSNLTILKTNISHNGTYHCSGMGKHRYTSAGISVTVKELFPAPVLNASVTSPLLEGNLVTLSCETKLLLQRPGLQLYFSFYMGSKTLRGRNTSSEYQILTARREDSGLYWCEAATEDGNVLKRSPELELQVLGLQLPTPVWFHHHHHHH
Assay: SPR, vs GpH7-A5/GpH7-B3/GpL16-k0 =100

Binder	He/Con 1a
B1	108 % of control
B2	103 % of control
B3	97.8 % of control
B4	100 % of control
B5	104 % of control
B6	97.3 % of control
B7	106 % of control
B8	99 % of control
B9	104 % of control
B10	100 % of control
B11	91.6 % of control
B12	97 % of control
B13	95.9 % of control
B14	101 % of control
B15	103 % of control
B16	97.8 % of control

Binder	He/Con 1a
B17	107 % of control
B18	92.7 % of control
B19	104 % of control
B20	105 % of control
B21	102 % of control
B22	101 % of control
B23	87.6 % of control
B24	102 % of control
B25	96.9 % of control
B26	95.2 % of control
B27	95.2 % of control
B28	103 % of control
B29	100 % of control
B30	98.8 % of control
B31	93.5 % of control

Molecular target: T1, FcγRIIa(R) extracellular domain, …
Assay: SPR, vs GpH7-A5/GpH7-B3/GpL16-k0 =100

Binder	He/Con 2aR
B1	99 % of control
B2	104 % of control
B3	83.4 % of control
B4	150 % of control
B5	121 % of control
B6	98 % of control
B7	110 % of control
B8	140 % of control
B9	130 % of control
B10	82.6 % of control
B11	70.6 % of control
B12	83.5 % of control
B13	152 % of control
B14	142 % of control
B15	113 % of control
B16	74.6 % of control

Binder	He/Con 2aR
B17	109 % of control
B18	110 % of control
B19	132 % of control
B20	142 % of control
B21	125 % of control
B22	106 % of control
B23	117 % of control
B24	90 % of control
B25	98.7 % of control
B26	86.6 % of control
B27	77.3 % of control
B28	102 % of control
B29	132 % of control
B30	87.2 % of control
B31	75.9 % of control

Molecular target: T2, FcγRIIa(H) extracellular domain, …
Assay: SPR, vs GpH7-A5/GpH7-B3/GpL16-k0 =100

Binder	He/Con 2aH
B1	94.4 % of control
B2	104 % of control
B3	94.9 % of control
B4	135 % of control
B5	133 % of control
B6	100 % of control
B7	101 % of control
B8	84.7 % of control
B9	98.2 % of control
B10	89.4 % of control
B11	79.5 % of control
B12	97.1 % of control
B13	131 % of control
B14	100 % of control
B15	134 % of control
B16	64.2 % of control

Binder	He/Con 2aH
B17	96.4 % of control
B18	99.8 % of control
B19	81.8 % of control
B20	74.6 % of control
B21	126 % of control
B22	96.3 % of control
B23	84.3 % of control
B24	86.8 % of control
B25	80 % of control
B26	77.6 % of control
B27	73.5 % of control
B28	99.5 % of control
B29	123 % of control
B30	88.1 % of control
B31	73.5 % of control

Molecular target: T3, FcγRIIb extracellular domain, His-tagged
Assay: SPR, vs GpH7-A5/GpH7-B3/GpL16-k0 =100

Binder	He/Con 2b
B1	83.4 % of control
B2	83.2 % of control
B3	75.8 % of control
B4	170 % of control
B5	114 % of control
B6	92 % of control
B7	92.3 % of control
B8	224 % of control
B9	134 % of control
B10	67.7 % of control
B11	53.4 % of control
B12	67.8 % of control
B13	168 % of control
B14	172 % of control
B15	110 % of control
B16	62.4 % of control

Binder	He/Con 2b
B17	89.6 % of control
B18	87.8 % of control
B19	207 % of control
B20	235 % of control
B21	131 % of control
B22	92.4 % of control
B23	121 % of control
B24	71.4 % of control
B25	90.8 % of control
B26	72 % of control
B27	62.7 % of control
B28	100 % of control
B29	135 % of control
B30	68.9 % of control
B31	55 % of control

Molecular target: T5, FcγRIIIa extracellular domain, His-tagged (human, UniProt P08637 17-208)
T5 construct: extracellular domain; also called 3a
T5 sequence (P08637 other isoform, or with tags, fused parts or gaps): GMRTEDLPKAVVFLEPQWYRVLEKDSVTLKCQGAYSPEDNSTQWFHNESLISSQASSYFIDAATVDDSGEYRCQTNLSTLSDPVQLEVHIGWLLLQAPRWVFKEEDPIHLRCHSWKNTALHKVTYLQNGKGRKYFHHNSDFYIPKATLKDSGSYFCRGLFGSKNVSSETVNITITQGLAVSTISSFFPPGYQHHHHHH
Assay: SPR, vs GpH7-A5/GpH7-B3/GpL16-k0 =100

Binder	He/Con 3a
B1	88.3 % of control
B2	85.1 % of control
B3	94.6 % of control
B4	77.8 % of control
B5	114 % of control
B6	88.2 % of control
B7	99.5 % of control
B8	100 % of control
B9	111 % of control
B10	68.1 % of control
B11	73.2 % of control
B12	76.8 % of control
B13	73.8 % of control
B14	113 % of control
B15	126 % of control
B16	68.6 % of control

Binder	He/Con 3a
B17	82.9 % of control
B18	57.1 % of control
B19	71.3 % of control
B20	98.9 % of control
B21	103 % of control
B22	75.6 % of control
B23	88.5 % of control
B24	69.8 % of control
B25	85.6 % of control
B26	72 % of control
B27	65 % of control
B28	92.8 % of control
B29	76.4 % of control
B30	77.1 % of control
B31	67.2 % of control
